Measurements as given in paper PMC8569584.

Key:
mAb m24 = assay: mAb binding to transfected HEK293FT cells (MFI normalized to integrin expression); conditions: read off a plot
mAb KIM127 = assay: as above; conditions: read off a plot
PAC-1 = PAC-1 binding to transfected HEK293FT cells (normalized MFI); conditions: 1 mM Ca/Mg; parent: est. 4; read off a plot
[1] = biological target: human ICAM-1 with a C-terminal Fc tag of human IgG1 (UniProt P05362); assay: ICAM-1 binding to transfected HEK293FT cells (MFI normalized to integrin expression); conditions: 1 mM CaCl2 plus 1 mM MgCl2 (Ca/Mg), read off a plot
[2] = 1 mM CaCl2 plus 1 mM MnCl2 (Ca/Mn), parent: est. 230
[3] = 1 mM CaCl2 plus 1 mM MnCl2 (Ca/Mn), parent: est. 200

Row | response (normalized MFI) (mAb m24; [2]) | response (normalized MFI) (mAb KIM127; 1 mM Ca/Mg, parent: est. 80) | response (normalized MFI) (mAb KIM127; [3]) | response (normalized MFI) (PAC-1) | Substance | also measured
1 | 180 | 31 | 120 |  | integrin αLβ2 with the αL-GFFKR to GAAKR mutation and wild-type β2 (from UniProt P20701;P05107) β2:V691P | response (normalized MFI) (mAb m24; 1 mM Ca/Mg, parent: est. 98): 30
2 |  |  |  | 3 | αIIb WT + β3 WT αIIb:L959C; αIIb:F993C; β3:P688C | 
3 | 200 | 60 | 170 |  | integrin αLβ2 with the αL-GFFKR to GAAKR mutation and wild-type β2 (from UniProt P20701;P05107) β2:I690P | response (normalized MFI) (mAb m24; 1 mM Ca/Mg, parent: est. 98): 67
4 | 220 | 91 | 190 |  | integrin αLβ2 with the αL-GFFKR to GAAKR mutation and wild-type β2 (from UniProt P20701;P05107) β2:V699P | 
5 |  |  |  | 25 | αIIb WT + β3 WT αIIb:L959C; αIIb:K994C | 
6 |  |  |  | 34 | αIIb WT + β3 WT αIIb:L959C; αIIb:F992C | 
7 | 260 | 52 | 180 |  | integrin αLβ2 with the αL-GFFKR to GAAKR mutation and wild-type β2 (from UniProt P20701;P05107) β2:L696P | response (normalized MFI) (mAb m24; 1 mM Ca/Mg, parent: est. 98): 75

The next lines start with the substance.

Row | Substance | response (normalized MFI) (mAb m24; [2]) | response (normalized MFI) (mAb KIM127; 1 mM Ca/Mg, parent: est. 80) | response (normalized MFI) (mAb KIM127; [3]) | response (normalized MFI) (PAC-1) | also measured
8 | αIIb WT + β3 WT β3:P688C |  |  |  | 6 | 
9 | αL/β2 WT αL:FFAA (GFFKR to GAAKR) |  |  |  |  | response (normalized MFI) (mAb m24; 1 mM CaCl2 plus 1 mM MnCl2 (Ca/Mn), parent: est. 58): 230; response (normalized MFI) (mAb KIM127; 1 mM Ca/Mg, parent: est. 18): 80; response (normalized MFI) (mAb KIM127; 1 mM CaCl2 plus 1 mM MnCl2 (Ca/Mn), parent: est. 44): 200; response (normalized MFI) ([1]; parent: est. 5): 60
10 | integrin αLβ2 with the αL-GFFKR to GAAKR mutation and wild-type β2 (from UniProt P20701;P05107) β2:L692P | 210 | 120 | 210 |  | response (normalized MFI) (mAb m24; 1 mM Ca/Mg, parent: est. 98): 160
11 | αIIb WT + β3 WT αIIb:L959C; αIIb:K994C; β3:P688C |  |  |  | 3 | 
12 | αIIb WT + β3 WT αIIb:L959C; αIIb:F993C |  |  |  | 37 | 
13 | integrin αLβ2 with the αL-GFFKR to GAAKR mutation and wild-type β2 (from UniProt P20701;P05107) β2:I693P | 140 | 30 | 110 |  | response (normalized MFI) (mAb m24; 1 mM Ca/Mg, parent: est. 98): 33
14 | integrin αLβ2 with the αL-GFFKR to GAAKR mutation and wild-type β2 (from UniProt P20701;P05107) β2:I698P |  |  |  |  | response (normalized MFI) ([1]; parent: est. 60): 84
15 | αIIb WT + β3 WT αIIb:L959C; αIIb:R995C; β3:P688C |  |  |  | 11 | 
16 | αIIb WT + β3 WT αIIb:L959C; αIIb:G991C; β3:P688C |  |  |  | 4 | 
17 | αIIb WT + β3 WT αIIb:L959C; αIIb:R995C |  |  |  | 110 | 
18 | αIIb WT + β3 WT αIIb:L959C; αIIb:G991C |  |  |  | 150 | 
19 | αIIb WT + β3 WT αIIb:L959C; αIIb:F992C; β3:P688C |  |  |  | 3 | 
